Bridge positions count the residues as written; N and C are the ends. Peptide text beside a SMILES is read from it.
Experiments:
dried fibrin = target: T1, dried fibrin (Homo sapiens, UniProt P02671+P02675+P02679); experiment: dissociation constant against dried fibrin (free peptide by mass spectrometry); format: binding
T1 construct: Thrombin cleavage at the Arg16-Arg17 bond in the Ax chains and at the Arg14-Gly15 bond on the BP chains releases fibrinopeptides A and B; host or cells: fibrinogen solution clotted with thrombin in 96-well plates and dried at 37 C
T1 sequence (P02671 36-629 limits assumed): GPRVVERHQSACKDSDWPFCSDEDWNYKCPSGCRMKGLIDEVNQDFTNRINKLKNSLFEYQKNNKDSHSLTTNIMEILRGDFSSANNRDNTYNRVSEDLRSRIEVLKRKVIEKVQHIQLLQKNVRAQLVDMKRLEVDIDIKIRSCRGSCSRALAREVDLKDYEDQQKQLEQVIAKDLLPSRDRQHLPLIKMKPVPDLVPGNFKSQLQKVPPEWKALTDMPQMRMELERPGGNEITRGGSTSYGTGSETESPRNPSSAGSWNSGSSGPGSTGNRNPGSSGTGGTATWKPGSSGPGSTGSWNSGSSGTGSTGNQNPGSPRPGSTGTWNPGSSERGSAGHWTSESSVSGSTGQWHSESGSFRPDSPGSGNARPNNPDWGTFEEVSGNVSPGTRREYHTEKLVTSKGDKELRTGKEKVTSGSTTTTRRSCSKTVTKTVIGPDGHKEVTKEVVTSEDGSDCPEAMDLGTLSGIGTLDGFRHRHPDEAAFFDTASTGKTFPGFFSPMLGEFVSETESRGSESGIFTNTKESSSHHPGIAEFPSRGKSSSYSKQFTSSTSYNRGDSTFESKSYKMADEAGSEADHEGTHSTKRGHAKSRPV
T1 sequence (P02675 45-491 limits assumed): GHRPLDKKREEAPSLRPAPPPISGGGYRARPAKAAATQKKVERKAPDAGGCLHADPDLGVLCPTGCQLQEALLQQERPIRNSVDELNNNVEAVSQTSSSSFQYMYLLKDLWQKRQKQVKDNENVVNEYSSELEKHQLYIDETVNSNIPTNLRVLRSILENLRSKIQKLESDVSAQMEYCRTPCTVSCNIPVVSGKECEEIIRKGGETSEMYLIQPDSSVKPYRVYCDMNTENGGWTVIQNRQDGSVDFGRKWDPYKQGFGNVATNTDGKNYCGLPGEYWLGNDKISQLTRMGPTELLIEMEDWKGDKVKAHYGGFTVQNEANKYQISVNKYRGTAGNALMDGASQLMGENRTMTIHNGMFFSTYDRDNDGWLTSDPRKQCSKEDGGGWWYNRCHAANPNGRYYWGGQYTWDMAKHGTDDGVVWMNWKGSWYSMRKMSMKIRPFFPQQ
T1 sequence (P02679 27-437 isoform P02679-2 limits assumed): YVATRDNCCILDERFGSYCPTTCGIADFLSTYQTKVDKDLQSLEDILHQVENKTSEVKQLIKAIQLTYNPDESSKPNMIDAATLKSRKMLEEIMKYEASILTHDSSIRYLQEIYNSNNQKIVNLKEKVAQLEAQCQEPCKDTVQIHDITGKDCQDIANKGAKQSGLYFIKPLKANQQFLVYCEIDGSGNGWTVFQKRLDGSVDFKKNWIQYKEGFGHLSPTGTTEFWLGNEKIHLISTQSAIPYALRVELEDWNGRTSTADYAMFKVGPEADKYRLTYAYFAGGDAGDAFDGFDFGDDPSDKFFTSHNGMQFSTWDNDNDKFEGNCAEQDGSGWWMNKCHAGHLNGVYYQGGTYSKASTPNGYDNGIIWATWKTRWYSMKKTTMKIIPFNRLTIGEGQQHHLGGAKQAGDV
Method: A fibrinogen solution was prepared at 10 mg/ml (or at twice the concentration of fibrin desired) in TBS buffer (50 mM Tris, 150 mM NaCl, pH 7.4). The fibrinogen solution typically contained ˜17 mM citrate. Subsequently, a solution was prepared containing 2 U/ml thrombin, 20 mM CaCl2, and 5 mM ε-aminocaproic acid in TBS. The fibrinogen solution and thrombin solution were mixed 1:1 in the wells of a 96-well plate, aliquoting 50 μL of each solution in each well (total volume=100 μL). The plates were evaporated to dryness overnight at 37° C. The polypeptide to be tested, dissolved in water, was added to each well at concentrations between 1-200 μM. A typical binding assay contained 24 points at concentrations of 2, 4, 6, 8, 10, 12, 14, 17, 20, 23, 26, 30, 35, 40, 45, 50, 60, 70, 80, 100, 125, 150, 175, and 200 μM. The plate containing the peptide and (rehydrated) dried fibrin was covered and incubated at 37° C. on a shaker table for 2 hours.
The supernatant in each well was removed by pipette and the concentration of the polypeptide was measured by mass spectrometry. The ion current detected at the mass of the peptide was monitored after injection of a sample into the mass spectrometer. The area-under-the-peak was quantitated and compared to standards of known concentration. The concentration of peptide in the supernatant is equal to the concentration of free peptide. The concentration of bound peptide was determined by subtracting the concentration of free peptide from the total (starting) concentration. A plot of [Bound Peptide] vs. [Free Peptide] was used to determine the Kd and the concentration of bound peptide at saturation. The curve was fit to the equation: [Bound]=N×[Free]/(Kd+[Free]) where [Bound] is the concentration of bound polypeptide, [Free] is the concentration of free polypeptide, Kd is the dissociation constant (equal to the reciprocal of Ka) and N is the concentration of binding sites. The number of binding sites per fibrin molecule was equal to the lo concentration of binding sites determined by the [Bound Polypeptide] vs. [Free Polypeptide] plot, divided by the concentration of fibrin (15 μM) used in the assay.

DD(E) = target: T2, DD(E) (Homo sapiens, UniProt P02671+P02675+P02679); experiment: dissociation constant against fibrin-derived polypeptide DD(E); format: binding; settings: read-out: Kd DD(E)
T2 construct: host or cells: purchased fibrinogen clotted with thrombin, digested with plasmin, then purified by ammonium sulfate cuts and Sephacryl S200
Method: The soluble fibrin-derived polypeptide DD(E) was prepared following a modification of a published method (Moskoitz and Budzynksi, Biochemistry, 33: 12937-12944 (1994) and references therein). Fibrinogen containing a Factor XIII trace impurity (1 g, Grade L; purchased from American Diagnostica) was dissolved in TBS buffer and dialyzed overnight against TBS containing 5 mM citrate. The fibrinogen concentration was adjusted to 3.0 mg/ml and CaCl2 was added to a concentration of 10 mM. Clotting of the fibrinogen was initiated by the addition of thrombin to 0.5 U/ml and the clot was incubated for 3 hours at 37° C. The clot was cut up with a spatula to release water and to concentrate the clot. The clot pieces were washed twice with TBS.Ca buffer (TBS containing 2 mM CaCl2) and were centrifuged at 4,000×g to compact the clots between washes. The clot material was resuspended in 250 ml TBS containing 25 mM CaCl2 and 2 K.I.U. plasmin per mg fibrin. The clots were digested overnight at 20° C. Undigested clot was removed by pipette, and the supernatant was shaken with 10 ml of Lysine Sepharose (Pharmacia) for 30 minutes and filtered to remove the resin. Aprotinin was added to the filtrate to a concentration of 500 U/μL. Ammonium Sulfate was added to 30% saturation and the precipitated protein was removed by centrifugation. More ammonium sulfate was added to the supernatant to a final concentration of 50% saturation, and the precipitated protein was concentrated by centrifugation. The pellets, containing DD(E), were resuspended in a small volume of buffer (50 mM Tris, 150 mM NaCl, 2 mM CaCl2) (<10 ml) and chromatographed on a Sephacryl S200 (Pharmacia) size exclusion column (5×100 cm) in the same buffer. Fractions of protein eluted from the column were assayed by SDS-PAGE for DD(E). DD(E) contains subunits of 55 kD (Fragment E) and 190 kD (Fragment DD). […]
Dissociation constants were determined against DD(E) as described above.

fibrin = target: T3, fibrin (Homo sapiens, UniProt P02671+P02675+P02679); experiment: dried fibrin plate ELISA of phage isolates; format: binding; settings: phage isolates from TN7 library; symbols not defined
T3 construct: Thrombin cleavage at the Arg16-Arg17 bond in the Ax chains and at the Arg14-Gly15 bond on the BP chains releases fibrinopeptides A and B; host or cells: fibrinogen solution clotted with thrombin in 96-well plates and dried at 37 C
T3 sequence (P02671 36-629 limits assumed): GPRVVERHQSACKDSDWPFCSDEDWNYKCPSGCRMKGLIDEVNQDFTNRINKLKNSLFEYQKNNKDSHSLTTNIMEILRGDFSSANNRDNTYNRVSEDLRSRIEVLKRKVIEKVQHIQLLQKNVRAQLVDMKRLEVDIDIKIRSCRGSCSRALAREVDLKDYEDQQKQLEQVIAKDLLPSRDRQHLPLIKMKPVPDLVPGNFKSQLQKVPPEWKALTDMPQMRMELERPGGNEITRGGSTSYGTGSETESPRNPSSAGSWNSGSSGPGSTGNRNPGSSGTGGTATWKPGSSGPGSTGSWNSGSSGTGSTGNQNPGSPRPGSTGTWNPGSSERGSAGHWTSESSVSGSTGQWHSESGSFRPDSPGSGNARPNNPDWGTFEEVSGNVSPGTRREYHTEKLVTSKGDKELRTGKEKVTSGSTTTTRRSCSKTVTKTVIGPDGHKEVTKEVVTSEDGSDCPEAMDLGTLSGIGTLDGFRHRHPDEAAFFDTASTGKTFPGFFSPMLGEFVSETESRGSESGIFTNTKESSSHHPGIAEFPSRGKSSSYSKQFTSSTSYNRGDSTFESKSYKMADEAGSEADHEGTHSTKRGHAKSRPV
T3 sequence (P02675 45-491 limits assumed): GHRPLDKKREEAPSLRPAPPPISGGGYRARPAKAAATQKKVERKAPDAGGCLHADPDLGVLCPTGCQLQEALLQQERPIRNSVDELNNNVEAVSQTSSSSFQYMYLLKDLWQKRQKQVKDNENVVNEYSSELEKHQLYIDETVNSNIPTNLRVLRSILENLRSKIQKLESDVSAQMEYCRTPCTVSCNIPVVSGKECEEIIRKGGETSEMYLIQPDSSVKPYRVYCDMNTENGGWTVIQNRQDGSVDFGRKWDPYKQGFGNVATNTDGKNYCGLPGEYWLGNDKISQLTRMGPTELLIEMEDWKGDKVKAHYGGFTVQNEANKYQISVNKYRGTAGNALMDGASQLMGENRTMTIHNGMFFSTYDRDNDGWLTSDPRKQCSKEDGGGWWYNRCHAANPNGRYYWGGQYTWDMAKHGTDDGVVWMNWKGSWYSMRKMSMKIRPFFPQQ
T3 sequence (P02679 27-437 isoform P02679-2 limits assumed): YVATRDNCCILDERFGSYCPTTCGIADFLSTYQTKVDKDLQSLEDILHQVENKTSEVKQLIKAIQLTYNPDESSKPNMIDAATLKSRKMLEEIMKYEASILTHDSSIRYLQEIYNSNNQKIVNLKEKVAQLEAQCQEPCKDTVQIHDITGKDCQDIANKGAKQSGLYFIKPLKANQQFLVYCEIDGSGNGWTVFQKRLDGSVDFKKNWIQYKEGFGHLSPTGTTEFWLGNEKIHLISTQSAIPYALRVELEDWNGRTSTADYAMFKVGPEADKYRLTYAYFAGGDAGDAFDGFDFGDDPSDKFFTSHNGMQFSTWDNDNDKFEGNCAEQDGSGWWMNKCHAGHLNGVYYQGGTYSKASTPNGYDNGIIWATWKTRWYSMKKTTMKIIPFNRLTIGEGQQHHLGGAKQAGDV
Method: For screening libraries to isolate binding moieties for fibrin, two fibrin targets, i.e., synthetic fibrin clots and then a soluble fibrin fragment, DD(E), were prepared. To prepare fibrin for screening, dilute fibrin clots were formed in the wells of a 96-well plate, dried down to a thin layer, and then rehydrated prior to library screening. In a typical procedure, a 0.15 mg/ml fibrinogen solution was prepared in TBS buffer (50 mM Tris, 150 mM NaCl, pH 7.4). A solution containing 2 U/ml thrombin, 10 mM CaCl2, and 5 mM ε-aminocaproic acid in TBS was prepared. The fibrinogen solution and thrombin solution were mixed 1:1 in the wells of a 96-well plate, aliquoting 25 μL of each solution in each well (total volume=50 μL). The plates were evaporated to dryness by incubating them at 37° C. overnight. Just before a phage library was added to the dried fibrin target, the fibrin wells were washed three times for 10 minutes with phage blocking buffer (TBS containing 2 mM CaCl2, 0.1% Tween-20, and 0.1% human serum albumin (HSA)).
After five rounds of selection, the eluted phage were propagated and a portion plated to isolate phage plaques arising from individual clones. Ninety such clones were selected randomly, propagated, and tested individually for binding to fibrin in a dried fibrin plate assay. Dried fibrin plates were prepared as described above for the library screening. Phage samples (˜10^9 phage each) were incubated in the dried fibrin plate wells in binding buffer (50 mM Tris, 150 mM NaCl, 2 mM CaCl2, 0.05% Tween-20) containing 0.1% HSA. After 1 hour, the plates were washed 5 times with binding buffer. Anti-M13 antibody conjugated to horseradish peroxidase (Pharmacia) was added at 1/5000 dilution in binding buffer to the wells and incubated with the fibrin for 1 hour. The wells were again washed 5 times with binding buffer and the presence of the antibody/phage/fibrin complex was measured with HRP calorimetric reagents (3,3′,5,5′-tetrarnethylbenzidine (TMB) and H2O2). A high absorbance at 595 nm (due to oxidized TMB) was indicative of a tight phage/fibrin interaction, and phage clones corresponding to those wells were identified as bearing fibrin-binding moieties.
The amino acid sequence data from these phage isolates were sorted according to the degree of similarity and response in the fibrin ELISA assay.

[1] = target: DD(E) soluble fibrin-derived polypeptide (UniProt P02671); experiment: Kd against DD(E) target, 'as described above'

CC(C)C[C@H](NC(=O)[C@@H]1CSSC[C@H](NC(=O)[C@@H]2CCCN2C(=O)[C@@H](N)CC(C)C)C(=O)N[C@@H](C)C(=O)N[C@@H](Cc2ccc(O)cc2)C(=O)N[C@@H](Cc2ccc(O)cc2)C(=O)NCC(=O)N[C@@H]([C@@H](C)O)C(=O)N1)C(=O)N[C@@H](CC(=O)O)C(N)=O [SEQ ID NO: 42, LPCAYYGTCLD] (H-LPCAYYGTCLD-NH2; disulfide 3-9)
Kd (dried fibrin): 23 µM | Kd (DD(E)): 5.9 µM

6 (HDCQYYGTCLH; synthetic fibrin binding peptide) [compound 6]
relative binding (fibrin): + + +

10 (FSCWYSLHCHR; synthetic fibrin binding peptide) [compound 10]
relative binding (fibrin): + + +

CC(C)C[C@H](NC(=O)[C@@H]1CSSC[C@H](NC(=O)[C@H](C)NC(=O)[C@@H](N)Cc2ccccc2)C(=O)N[C@@H](Cc2c[nH]cn2)C(=O)N[C@@H](Cc2ccc(O)cc2)C(=O)N[C@@H](Cc2ccc(O)cc2)C(=O)NCC(=O)N[C@@H]([C@@H](C)O)C(=O)N1)C(=O)N[C@@H](Cc1c[nH]cn1)C(N)=O [SEQ ID NO: 7, FACHYYGTCLH] (H-FACHYYGTCLH-NH2; disulfide 3-9)
Kd (dried fibrin): 23 µM | Kd (DD(E)): 7.3 µM

5 (RSCNYYGTCLH; synthetic fibrin binding peptide) [compound 5]
relative binding (fibrin): + + +

B1: TN10-9 phage isolate … (peptide, not shown: large carriers)
peptide: RFLCYDSYYHWWCSHH
Kd [1]: 10 µM

B2: TN10-9 phage isolate … (peptide, not shown: large carriers)
peptide: NHGCYNSYGVPYCDYS
Kd [1]: 2.7 µM

From patent publication US20050261472A1, “Binding moieties for fibrin” (Dyax Corp., priority 1999, published 2005)
